Measured values published in patent US20250034212A1, “PEPTIDE” (PEPTIDREAM INC., priority 2021, published 2025).
Starred links: 1 amine or outer side, 2 acyl side, 3 side chain; linkers in the order of their positions; H or OH if unused. Positions of bridges follow the written chain, without caps; N, C: chain ends. Non-standard residues stand in square brackets, D forms with d. No end group written: not given here. KCOmeglumine = N6-(methyl-((2S,3R,4R,5R)-2,3,4,5,6-pentahydroxyhexyl)carbamoyl)-L-lysine, CN(C[C@H](O)[C@@H](O)[C@H](O)[C@H](O)CO)C(=O)NCCCC[C@H](N[*:1])C(=O)[*:2]; KCOpipzaa = N6-(4-(carboxymethyl)piperazine-1-carbonyl)-L-lysine, O=C(NCCCC[C@H](N[*:1])C(=O)[*:2])N1CCN(CC(=O)[*:3])CC1; Trp(6-aza) = N[C@@H](Cc1c[nH]c2cnccc12)C(=O)O; Trp(7-aza) = N[C@@H](Cc1c[nH]c2ncccc12)C(=O)O; 1Nal = N[C@@H](Cc1cccc2ccccc12)C(=O)O; Gly(NCH2CH2Ph) = O=C(O)CNCCc1ccccc1; 4Pal = N[C@@H](Cc1ccncc1)C(=O)O

How the values were obtained:
[1] = molecular target: T1, recombinant human TGF-β1 (R&D systems) (human, UniProt P01137 279-390); experiment: SPR, TGF-β1 immobilised, single cycle kinetics
T1 construct: Bought protein; immobilised on a CM3 chip (SPR) or on Dynabeads (ELISA), added to cells in the SBE reporter assay; also called TGF-β1 beads
Protocol: Subsequently, 50 μL of 60 mM EDC solution (Global Life Science Technologies Japan Co., Ltd.) and 50 μL of 650 mM NHS solution (Global Life Science Technologies Japan Co., Ltd.) were mixed. Next, the reaction was carried out at a flow rate of 10 μL/min for 420 seconds. Then, 150 μL of 0.2 μM TGF-β solution diluted in 10 mM acetic acid solution (pH 5.0) was prepared and reacted at a flow rate of 10 μL/min for 420 seconds to immobilize TGF-β on the CM3 sensor chip. TGF-β was human-derived TGF-β1 or β2 (recombinant human TGF-β1, 2) and was obtained from R&D systems. After immobilization, capping was performed by reacting with 1.0 M ethanolamine aqueous solution (Global Life Science Technologies Japan Co., Ltd.) at a flow rate of […] for 420 seconds.
A liquid prepared by dissolving each peptide at 10 mM in DMSO solution was diluted with running buffer to prepare a peptide-dissolved solution at a final concentration of 10 μM. Subsequently, 50 nM, 25 nM, 12.5 nM, 5 nM, and 2.5 nM peptide solutions were prepared. Using the above samples, the kinetics of each peptide against TGF-β was obtained by SPR measurement.
The kinetics evaluation model was Single Cycle Kinetics, and curve fitting was performed using Biacore T200 Evaluation Software Version 3.0 (Global Life Science Technologies Japan Co., Ltd.). The binding of various peptides to TGF-β was evaluated by performing least-squares curve fitting on the obtained sensorgram to calculate the KD value.

[2] = molecular target: T1, recombinant human TGF-β1 (R&D systems); experiment: cell-based or functional assay

T1 sequence (P01137 279-390 limits assumed): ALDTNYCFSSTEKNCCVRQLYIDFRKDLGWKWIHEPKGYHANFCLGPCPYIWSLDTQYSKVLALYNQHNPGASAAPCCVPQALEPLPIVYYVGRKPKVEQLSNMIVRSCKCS

Binder | Kd [1] | SBE reporter % inhibition, peptide 0.075 nM [2] | SBE reporter % inhibition, peptide 0.75 nM [2] | SBE reporter % inhibition, peptide 7.5 nM [2] | SBE reporter % inhibition, peptide 75.0 nM [2]
{CH2CO}-F[1Nal]VKNV[4Pal]DD[Gly(NCH2CH2Ph)]V[1Nal]YHVCG (thioether N-16; not fully specified (C-terminus), cyclic peptide; C-terminal G is a linker) [TGFb1_007] | 2.7 nM | 0.1% | 37.5% | 83.5% | 96.7%
{CH2CO}-F[Trp(7-aza)]VVNVYDD[Gly(NCH2CH2Ph)]V[1Nal]YHVCG (thioether N-16; not fully specified (C-terminus), cyclic peptide; C-terminal G is a linker) [TGFb1_005] | 1.15 nM | 0.4% | 47% | 90.8% | 98.9%
{CH2CO}-FWVVNVYDD[Gly(NCH2CH2Ph)]V[1Nal]YHVCG (thioether N-16, cyclic peptide; C-terminal G is a linker) [TGFb1_003] | 0.72 nM | 1.6% | 65.2% | 97.3% | 98.8%
{CH2CO}-F[Trp(7-aza)]VVNV[4Pal]DD[Gly(NCH2CH2Ph)]V[1Nal]YHVCG (thioether N-16; not fully specified (C-terminus), cyclic peptide; C-terminal G is a linker) [TGFb1_008] | 4.64 nM | 3.8% | 56.8% | 94.6% | 98.4%
{CH2CO}-F[1Nal]V[KCOpipzaa]NV[4Pal]DD[Gly(NCH2CH2Ph)]V[1Nal]YHVCG (thioether N-16; not fully specified (C-terminus), cyclic peptide; C-terminal G is a linker) [TGFb1_010] | 0.9 nM | 2% | 63.8% | 97.9% | 99.9%

Second part, the binder after the results:

Kd [1] | SBE reporter % inhibition, peptide 0.075 nM [2] | SBE reporter % inhibition, peptide 0.75 nM [2] | SBE reporter % inhibition, peptide 7.5 nM [2] | SBE reporter % inhibition, peptide 75.0 nM [2] | Binder
0.55 nM | 19.7% | 69.7% | 98.1% | 101% | {CH2CO}-F[1Nal]VVNVYDD[Gly(NCH2CH2Ph)]V[1Nal]YHVCG (thioether N-16, cyclic peptide; C-terminal G is a linker) [TGFb1_001]
0.46 nM |  |  |  |  | {CH2CO}-F[1Nal]VVNVYDD[Gly(NCH2CH2Ph)]V[1Nal]YHVC (thioether N-16, cyclic peptide) [TGFb1_002]
0.59 nM | 0% | 76.9% | 98.7% | 98.4% | {CH2CO}-F[1Nal]VVNV[4Pal]D[KCOmeglumine][Gly(NCH2CH2Ph)]V[1Nal]YHVCG-NH2 (thioether N-16; SMILES CC(C)[C@@H]1NC(=O)CN(CCc2ccccc2)C(=O)[C@H](CCCCNC(=O)N(C)C[C@H](O)[C@@H](O)[C@H](O)[C@H](O)CO)NC(=O)[C@H](CC(=O)O)NC(=O)[C@H](Cc2ccncc2)NC(=O)[C@H](C(C)C)NC(=O)[C@H](CC(N)=O)NC(=O)[C@H](C(C)C)NC(=O)[C@H](C(C)C)NC(=O)[C@H](Cc2cccc3ccccc23)NC(=O)[C@H](Cc2ccccc2)NC(=O)CSC[C@@H](C(=O)NCC(N)=O)NC(=O)[C@H](C(C)C)NC(=O)[C@H](Cc2c[nH]cn2)NC(=O)[C@H](Cc2ccc(O)cc2)NC(=O)[C@H](Cc2cccc3ccccc23)NC1=O, cyclic peptide; C-terminal G is a linker) [TGFb1_015]
0.58 nM | 2.7% | 53% | 94.8% | 99.6% | {CH2CO}-F[1Nal]VVNV[4Pal]DD[Gly(NCH2CH2Ph)]V[1Nal][4Pal]HVCG (thioether N-16; not fully specified (C-terminus), cyclic peptide; C-terminal G is a linker) [TGFb1_009]
0.62 nM | 6.1% | 76.3% | 97.9% | 100% | {CH2CO}-F[1Nal]VVNV[4Pal]D[KCOpipzaa][Gly(NCH2CH2Ph)]V[1Nal]YHVCG-NH2 (thioether N-16; SMILES CC(C)[C@@H]1NC(=O)CN(CCc2ccccc2)C(=O)[C@H](CCCCNC(=O)N2CCN(CC(=O)O)CC2)NC(=O)[C@H](CC(=O)O)NC(=O)[C@H](Cc2ccncc2)NC(=O)[C@H](C(C)C)NC(=O)[C@H](CC(N)=O)NC(=O)[C@H](C(C)C)NC(=O)[C@H](C(C)C)NC(=O)[C@H](Cc2cccc3ccccc23)NC(=O)[C@H](Cc2ccccc2)NC(=O)CSC[C@@H](C(=O)NCC(N)=O)NC(=O)[C@H](C(C)C)NC(=O)[C@H](Cc2c[nH]cn2)NC(=O)[C@H](Cc2ccc(O)cc2)NC(=O)[C@H](Cc2cccc3ccccc23)NC1=O, cyclic peptide; C-terminal G is a linker) [TGFb1_011]
1.49 nM | 0% | 0.9% | 70.1% | 94.9% | {CH2CO}-F[Trp(6-aza)]VVNVYDD[Gly(NCH2CH2Ph)]V[1Nal]YHVCG (thioether N-16, cyclic peptide; C-terminal G is a linker) [TGFb1_004]
0.66 nM | 0% | 64.8% | 97.2% | 98.8% | {CH2CO}-F[1Nal]V[KCOmeglumine]NV[4Pal]DD[Gly(NCH2CH2Ph)]V[1Nal]YHVCG-NH2 (thioether N-16; SMILES CC(C)[C@@H]1NC(=O)CN(CCc2ccccc2)C(=O)[C@H](CC(=O)O)NC(=O)[C@H](CC(=O)O)NC(=O)[C@H](Cc2ccncc2)NC(=O)[C@H](C(C)C)NC(=O)[C@H](CC(N)=O)NC(=O)[C@H](CCCCNC(=O)N(C)C[C@H](O)[C@@H](O)[C@H](O)[C@H](O)CO)NC(=O)[C@H](C(C)C)NC(=O)[C@H](Cc2cccc3ccccc23)NC(=O)[C@H](Cc2ccccc2)NC(=O)CSC[C@@H](C(=O)NCC(N)=O)NC(=O)[C@H](C(C)C)NC(=O)[C@H](Cc2c[nH]cn2)NC(=O)[C@H](Cc2ccc(O)cc2)NC(=O)[C@H](Cc2cccc3ccccc23)NC1=O, cyclic peptide; C-terminal G is a linker) [TGFb1_014]
